Results as given in patent US6638905B2, “Cloning and recombinant production of CFR receptor(s)” (priority 1993, dated 2003).
No end group written: not given here.

What was measured:
CRF-RB1 = molecular target: T1, CRF-RB1 (Mus musculus, UniProt Q60748); assay: Competitive displacement of 125I-(Nle21,Tyr32)-ovine CRF from membranes of COSM6 cells transfected with pCRF-RB1; type: binding; conditions: for displacement of bound radioligand (in words): specificity of binding
T1 construct: The full-length CRF-RB1 receptor cDNA was subcloned into the expression vector pcDNA1; expressed in transfected cells; host or cells: COSM6 cells, DEAE-dextran transient transfection of pCRF-RB1
T1 sequence (Q60748 1-431 isoform Q60748-2): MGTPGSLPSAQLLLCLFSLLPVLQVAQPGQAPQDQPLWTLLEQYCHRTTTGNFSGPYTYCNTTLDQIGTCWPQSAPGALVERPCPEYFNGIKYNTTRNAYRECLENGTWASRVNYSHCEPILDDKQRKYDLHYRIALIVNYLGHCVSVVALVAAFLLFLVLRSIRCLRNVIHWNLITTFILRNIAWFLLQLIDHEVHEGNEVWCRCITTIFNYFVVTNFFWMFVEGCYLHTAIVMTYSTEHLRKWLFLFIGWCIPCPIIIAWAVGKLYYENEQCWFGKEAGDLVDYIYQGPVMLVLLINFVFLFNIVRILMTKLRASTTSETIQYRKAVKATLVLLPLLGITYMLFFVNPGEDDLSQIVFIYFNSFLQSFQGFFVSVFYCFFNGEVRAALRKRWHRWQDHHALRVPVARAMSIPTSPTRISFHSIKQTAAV
Procedure: Approximately 10^6 COSM6 cells were transfected with either hctCRFR or rGnRHR (rat gonadotropin releasing hormone receptor) by the DEAE-dextran method and grown in 150 mm tissue culture dishes. Two days after transfection, the cells were washed twice with 1 ml HDB and were detached by incubation for 15 min at room temperature in 0.5 mM EDTA in HDB. After pelleting, the cells were washed twice with HDB, and then homogenized in 5% sucrose (16 ml/150 mm dish). The homogenate was centrifuged at 600×g for 5 minutes, and the resulting supernatant was centrifuged at 40,000×g for 20 minutes. The resulting pellet (containing crude membranes) was resuspended at 1-4 mg/ml in 10% sucrose, and used in a competitive radioreceptor assay to measure binding to the CRF-R as described in Perrin et al., Endoc., 118:1171 (1986).
The reaction was terminated by filtration through GF/C (Whatman) filters, prewetted with 1%BSA, 10 mM HEPES, pH 7.5. The filters were washed 4 times with 1 ml 0.1% BSA, 50 mM Tris, pH 7.5.
Using the methods described in Example 3, a radioreceptor assay was conducted. Approximately […] of pCRF-RB1 plasmid DNA was transfected into COSM6 cells using the DEAE dextran method. […] In order to calculate a Kd the displacement data were analyzed using the Ligand program of Munson and Rodbard (1980), Anal. Biochem., 107:220-239.

[1] = molecular target: T2, CRF-RB1 expressed in COSM6 cells (Mus musculus, UniProt Q60748); assay: CRF-RB1 mediated stimulation of intracellular cAMP in COSM6 cells transfected with pCRF-RB1; type: cell-based; conditions: for stimulation of intracellular cAMP accumulation (in words): FIG. 5
T2 construct: The full-length CRF-RB1 receptor cDNA was subcloned into the expression vector pcDNA1; expressed in transfected cells; host or cells: COSM6 cells, DEAE-dextran transient transfection of pCRF-RB1
T2 sequence (Q60748 1-431 isoform Q60748-2): as above
Procedure: Using methods described in Example 4, the ability of CRF-RB1 to stimulate cAMP formation in CRF-RB1-expressing COSM6 cells was investigated. The plasmid pCRF-RB1 was transfected into COSM6 cells. One day later, the cells were trypsinized and replated in 10% FBS, DMEM into 24 or 48 well COSTAR tissue culture wells, and allowed to grow another 24 hours. The medium was changed to 0.1% FBS, DMEM at least two hours before treatments. The cells were preincubated for 30 minutes with 0.1 mM 3-isobutyl-1-methylxanthine and then exposed to various peptides for 30 minutes at 37° C. Intracellular cAMP was measured in duplicate from triplicate wells using an RIA kit (Biomedical Technologies, Stoughton, Mass.).

[2] = molecular target: T3, hCRF-RA1 (CRF receptor encoded by clone hctCRFR) (Homo sapiens, UniProt P34998); assay: Competitive radioreceptor assay: displacement of 125I-(Nle21,Tyr32)-ovine CRF from membranes of COSM6 cells transfected with hctCRFR; type: binding; conditions: receptor of SEQ ID NO:2
T3 construct: expressed in transfected cells; host or cells: COSM6 cells, DEAE-dextran transient transfection of clone hctCRFR in pcDNA1
T3 sequence (P34998 24-415): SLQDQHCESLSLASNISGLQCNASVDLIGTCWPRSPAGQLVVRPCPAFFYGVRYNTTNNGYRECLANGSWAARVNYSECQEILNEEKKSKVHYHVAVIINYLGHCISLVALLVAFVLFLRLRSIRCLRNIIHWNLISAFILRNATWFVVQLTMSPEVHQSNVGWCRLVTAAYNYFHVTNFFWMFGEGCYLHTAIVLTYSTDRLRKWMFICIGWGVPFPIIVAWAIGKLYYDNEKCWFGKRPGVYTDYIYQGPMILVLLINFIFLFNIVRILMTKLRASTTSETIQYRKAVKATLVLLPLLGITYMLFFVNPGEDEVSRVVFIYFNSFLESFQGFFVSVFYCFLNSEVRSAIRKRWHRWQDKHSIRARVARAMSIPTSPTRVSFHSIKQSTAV
Procedure: Approximately 10^6 COSM6 cells were transfected with either […] or […] (rat gonadotropin releasing hormone receptor) by the DEAE-dextran method and grown in 150 mm tissue culture dishes. Two days after transfection, the cells were washed twice with 1 ml HDB and were detached by incubation for 15 min at room temperature in 0.5 mM EDTA in HDB. After pelleting, the cells were washed twice with HDB, and then homogenized in 5% sucrose (16 ml/150 mm dish). […] The reaction was terminated by filtration through GF/C (Whatman) filters, prewetted with 1%BSA, 10 mM HEPES, pH 7.5. The filters were washed 4 times with 1 ml 0.1% BSA, 50 mM Tris, pH 7.5. Filter-bound radioactivity, indicating the presence of CRF-R:^125 I-([…],Tyr^32)-ovine CRF complex, was determined by g-scintillation counting.

[3] = molecular target: T4, CRF-RA1 (hctCRFR) expressed in COSM6 cells (Homo sapiens, UniProt P34998); assay: CRF-R mediated stimulation of intracellular cAMP in COSM6 cells transfected with hctCRFR; type: cell-based; conditions: receptor transfected COSM6 cells
T4 construct: expressed in transfected cells; host or cells: COSM6 cells, DEAE-dextran transient transfection of clone hctCRFR in pcDNA1
T4 sequence (P34998 24-415): T3 sequence (P34998 24-415)
Procedure: To determine the possible linkage of CRF-R to multiple signaling pathways, the ability of CRF-R to stimulate cAMP formation in CRF-R-expressing COSM6 cells was investigated. To ensure that changes in cAMP levels were not influenced by alterations in cAMP phosphodiesterase, the phosphodiesterase inhibitor 3-isobutyl-1-methylxanthine (IBMX) was added to the medium. COSM6 cells were trypsinized 24 hrs following transfection with either ctCRFR or rGnRHR in 150 mm dishes and were replated in 24-well plates (Costar) and allowed to express the receptors for another 24 hrs in 10% FCS, DMEM.
On the day of the stimulation, the medium was changed to 0.1 w FCS, DMEM at least 2 hrs before a 30 minute preincubation with 0.1 mM IBMX or medium. Test ligands (i.e., r/h CRF, sauvagine, salmon calcitonin, Vasoactive intestinal peptide (VIP), growth hormone releasing factor (GRF) were added in 0.1% BSA, 0.1% FCS, DMEM, and stimulation was carried out for 30 minutes at 37° C., 7.5% CO2. The medium was removed and the cells were extracted overnight with 1 ml ice-cold 95% EtOH-0.1M HCl at −20° C. Cyclic AMP (cAMP) levels were determined in duplicate from triplicate wells by RIA kit (Biomedical Technologies, Stoughton, Mass.) following the manufacturer's protocol.

| Compound | affinity of the CRF-Rs for the ligand (in words) (CRF-RB1) | stimulation of intracellular cAMP accumulation (in words) [1] | affinity of the receptor for the ligand (in words) [2] | effect on cyclic AMP levels / activity of non-related peptides (in words) [3] | other results |
| --- | --- | --- | --- | --- | --- |
| CC[C@H](C)[C@H](NC(=O)[C@@H](NC(=O)[C@H](CC(=O)O)NC(=O)[C@H](CC(C)C)NC(=O)[C@H](CC(C)C)NC(=O)[C@H](CC(C)C)NC(=O)[C@H](CCCNC(=N)N)NC(=O)[C@H](CC(N)=O)NC(=O)[C@H](CC(N)=O)NC(=O)[C@H](C)NC(=O)[C@H](C)NC(=O)[C@H](CCC(N)=O)NC(=O)[C@H](CCC(N)=O)NC(=O)[C@H](CCCCN)NC(=O)[C@H](CCC(=O)O)NC(=O)[C@H](CCCCN)NC(=O)[C@H](CCC(=O)O)NC(=O)[C@H](CCC(N)=O)NC(=O)[C@H](CCCCN)NC(=O)[C@H](CCC(=O)O)NC(=O)[C@@H](NC(=O)[C@H](CCC(=O)O)NC(=O)[C@@H](NC(=O)[C@H](CCSC)NC(=O)[C@H](CCCCN)NC(=O)[C@H](CCCNC(=N)N)NC(=O)[C@H](CC(C)C)NC(=O)[C@H](CC(C)C)NC(=O)[C@H](CCC(=O)O)NC(=O)[C@H](CC(C)C)NC(=O)[C@H](CO)NC(=O)[C@H](CC(C)C)NC(=O)[C@H](CC(=O)O)NC(=O)[C@@H](NC(=O)[C@H](CO)NC(=O)[C@@H](NC(=O)[C@@H]1CCCN1C(=O)[C@@H]1CCCN1C(=O)CNC(=O)[C@@H]1CCC(=O)N1)[C@@H](C)CC)[C@@H](C)CC)[C@@H](C)CC)[C@@H](C)CC)[C@@H](C)O)C(N)=O [sauvagine] | high affinity | equipotent to CRF | – | – | – |
| (DPhe^12,Nle^21,38)hCRF(12-41) | high affinity | – | high affinity | – | inhibition of the CRF signal by antagonist (in words) ([1]; 1 mM antagonist): inhibited |
| GRF: growth hormone releasing factor, non-related peptide (YADAIFTNSYRKVLGQLSARKLLQDIMSRQQGESNQERGA) | – | do not stimulate | – | inactive | displacement of bound radioligand (in words) (CRF-RB1): do not displace |
| NDDPPISIDLTFHLLRNMIEMARIENEREQAGLNRKYLDEV-NH2 (C-terminus assumed) [urotensin] | high affinity | equipotent to CRF | high affinity | – | Ki (CRF-RB1; on CRF-RB): 0.7 ± 0.3 nM |
| SQEPPISLDLTFHALREVLEMTKADQLAQQAHSNRKLLDIA-NH2 (C-terminus assumed) [[Ala^14]-ovine CRF] | – | – | very low affinity | – | – |
| VIP: vasoactive intestinal peptide, non-related peptide | – | do not stimulate | – | inactive | displacement of bound radioligand (in words) (CRF-RB1): do not displace |
| gonadotropin releasing hormone: non-related peptide | – | – | – | inactive | – |
| ovine CRF | – | – | high affinity | – | – |
| salmon calcitonin: non-related peptide | – | – | – | inactive | – |
